Patent publication US20170233490A1 (Hoffmann-La Roche, published 2017)

Columns and labels:
TgSlyDΔIF = target: T1, TgSlyDΔIF; experiment: ELISA, coated antigen 0.5 µg/ml, hybridoma supernatant
T1 construct: scaffold without hairpin insert, negative control
T1 chain: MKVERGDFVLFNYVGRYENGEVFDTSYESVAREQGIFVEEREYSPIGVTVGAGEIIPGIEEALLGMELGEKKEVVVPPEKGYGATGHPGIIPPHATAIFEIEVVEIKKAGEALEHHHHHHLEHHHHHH
Experimental: (§1) For the ELISA the screening an antigen down format was used. […] Hybridoma Supernatant was added to the plates and incubated for 1 h at room temperature. Bound antibody was detected with a HRP-labeled F(ab′)₂ goat anti-mouse Fcγ (Dianova) and ABTS (Roche) was used as a HRP-substrate.

SBP-tagged HER3-ECD = target: T2, SBP-tagged HER3-ECD (human, UniProt P21860 20-643); experiment: plate assay: SBP-tagged HER3-ECD on streptavidin plate, M-05-74 titrated in the presence of 10 nM Europium-labeled Heregulin-beta, time-resolved fluorescence; half-maximal promotion of HRG binding
T2 construct: from cell culture supernatant, held on a streptavidin plate; not shown: SBP tag
Experimental: On the next day the wells were washed three times with washing buffer (PBS+0.05% Tween-20) and blocked with PBS containing 1% BSA for one hour. After another three washes with washing buffer, 40 μl antibody solution (in Delfia Binding Buffer) was added to each well as a 2× stock of the desired final concentrations (10⁻³ to 10³ nM, alternatively 10⁻⁴ to 10² nM). […] The plates were incubated on a shaker at room temperature for two hours. Following three washes with Delfia Wash Buffer, Delfia Enhancement Solution was added and incubated on a shaker for 15 minutes (light protected). Finally, the plates were measured in a Tecan Infinite F200 reader using a time-resolved fluorescence measurement protocol.

[1] = target: T3, human HER2 Extracellular Domain (ECD) (human, UniProt P04626 23-652); experiment: ELISA, coated antigen
T3 construct: human recombinant, 69.6 kDa; also called Her2 ECD; HER2_ECD
Experimental: as §1
(§2) As negative controls the scaffold proteins TtSlyDcas and TgSlyDΔIF were used.

TtSlyDcas-Her3 = target: T4, TtSlyDcas-Her3; experiment: ELISA, coated antigen
T4 chain: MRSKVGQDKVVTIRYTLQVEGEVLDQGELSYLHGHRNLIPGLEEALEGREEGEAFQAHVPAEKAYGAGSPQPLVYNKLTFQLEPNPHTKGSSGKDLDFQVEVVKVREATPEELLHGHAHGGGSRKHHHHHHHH
Experimental: as §1, §2

[2] = target: T5, human HER3 Extracellular Domain (ECD) (human, UniProt P21860 20-643); experiment: ELISA, coated antigen
T5 construct: human recombinant, 68 kDa; 'closed' conformation without ligand; also called Her3 ECD; Her-3 ECD
Experimental: as §1, §2

TtSlyD-FKBP-Her3 [3] = target: T6, TtSlyD-FKBP-Her3; experiment: SPR Biacore 4000, antibody captured, analyte 150 nM, 25 C
T6 construct: N-terminal Met present or not; also called thermo SlyD-Her3; ttSlyD-Her3
T6 chain: T4 chain
Experimental: (§3) Prior to their application the hybridoma culture supernatants were diluted 1:5 in instrument buffer. The diluted mixtures were injected at a flow rate of 30 μl/min for 2 min. The antibody capture level (CL) in response units was monitored. Immediately thereafter the respective antigen was injected at a flow rate of 30 μl/min for 3 min association time. Thereafter, the antibody-antigen complex dissociation signal was recorded for 5 min. The sensor was regenerated by injecting a 10 mM glycine-HCl solution (pH 1.7) for 2 min at a flow rate of 30 μl/min. The recorded signal shortly before the end of the injection of the antigen was denoted as binding late (BL) in response units. The recorded signal shortly before the end of the recording of the dissociation is denoted as stability late (SL) in response units. The dissociation rate constants were determined calculated The antibody-antigen complex stability in minutes was calculated with the following formula: ln(2)/60*kd. The Molar Ratio was calculated with the formula: MW (antibody)/MW(antigen)*BL (antigen)/CL (antibody).
(§4) Binding Late (BL) represents the response units at the end of the analyte injection. The amount of antibody captured as a ligand on the sensor surface is measured as Capture Level (CL) in response units. Together with the information of the molecular weights of the tested analytes, the antibody and the analyte in solution, the Molar Ratio can be calculated. […] Then, the Molar Ratio is also an indicator for the valence mode of analyte binding. The maximum valence can be MR=2 for an antibody binding two analytes, one with each Fab valence.

[4] = target: T5, human HER3 Extracellular Domain (ECD); experiment: as above
Experimental: as §3, §4

HER3 ECD-HRG complex = target: T7, HER3 ECD-HRG complex (human, UniProt P21860 20-643); experiment: SPR Biacore 3000, antibody captured, 25 C
T7 construct: HER3 ECD preincubated with a 3- to 6-fold molar excess of Heregulin ('open' conformation); biotinylated Her3-ECD in the ribosome display; also called HER3-ECD/HRG1β
Experimental: (§5) A CMS series sensor was mounted into the system and was normalized in HBS-ET buffer (10 mM HEPES pH 7.4, 150 mM NaCl, 3 mM EDTA, 0.005% w/v Tween 20) according to the manufacturer's instructions. The sample buffer was the system buffer supplemented with 1 mg/ml CMD (Carboxymethyldextran). The system operated at 25° C. 10000 RU RAM-Fcγ (relative units of Fcγ-fragment Rabbit Anti-Mouse IgG/Jackson Laboratories) were immobilized according to the manufacturer's instructions using EDC/NHS chemistry on all flow cells. The sensor was deactivated using 1M ethanolamine. Analytes in solution were injected at 100 μl/min at different concentration steps of 0 nM, 1.1 nM, 3.7 nM, 11.1 nM, 33.1 nM and 90 nM for 2 min. The dissociation was monitored for 5 min. Acidic regeneration of the sensor surface was achieved using three consecutive injections of 10 mM Glycine pH 1.7 at 30 μl/min for 60 sec. Kinetic data were evaluated according to a Langmuir fit.

TtSlyD-FKBP-Her3 [5] = target: T6, TtSlyD-FKBP-Her3; experiment: SPR Biacore 3000, antibody captured, 25 C
Experimental: as §5

[6] = target: T5, human HER3 Extracellular Domain (ECD); experiment: SPR Biacore 3000, antibody captured, 25 C
Experimental: as §5

binding result (TgSlyDΔIF): no binding
EC50 (read off the curve) (SBP-tagged HER3-ECD): ~0.3 nM
ELISA signal [1]: 0.02
ELISA signal (TtSlyDcas-Her3): 3.13
ELISA signal [2]: 3.15
MR (Molar Ratio) (TtSlyD-FKBP-Her3 [3]): 1.1
koff (TtSlyD-FKBP-Her3 [3]): 0.00012 s⁻¹
MR (Molar Ratio) [4]: 0.5
koff [4]: < 1e-05 s⁻¹
BL (Binding Late) (HER3 ECD-HRG complex): 199 RU
MR (Molar Ratio) (HER3 ECD-HRG complex): 0.8
kon (HER3 ECD-HRG complex): 66000 M⁻¹ s⁻¹
t/2-diss (HER3 ECD-HRG complex): 18 min
BL (Binding Late) (TtSlyD-FKBP-Her3 [5]): 68.1 RU
MR (Molar Ratio) (TtSlyD-FKBP-Her3 [5]): 1.5
kon (TtSlyD-FKBP-Her3 [5]): 87500 M⁻¹ s⁻¹
t/2-diss (TtSlyD-FKBP-Her3 [5]): 4.9 min
BL (Binding Late) [6]: 36 RU
MR (Molar Ratio) [6]: 0.2
kon [6]: 20400 M⁻¹ s⁻¹
t/2-diss [6]: 28 min
B1: anti-HER3/HER4 antibody M-05-74 (antibody, V domains shown)
VH: QVQLQQSGAELAKPGASVKMSCKTSGYTLTDYWIHWVKQRPGQGLEWIGYINPYTGYTESNQKFKDKATLTADKSSNTAYIQLSSLTSEDSAVYYCARPYYYGDYWGQGTTLTVSS
VL: QIVLTQSPAIMSASPGERVTITCSASSSVSYMHWFQQKPGTSPKLLIYSTSNLASGVPARFSGSGSGTSYSLTISRMEAEDAATYYCQQRSSYPFTFGSGTKLEIK
notes: murine monoclonal IgG from hybridoma (supernatant or purified), bivalent; also called M-074; M-5-74
